We go through one molecule from paper PMC9282234.

A value given as a limit tells only on which side of the number the result lay.

Test [1] addresses T1, FUS-SNAP, P35637.
T1 chain: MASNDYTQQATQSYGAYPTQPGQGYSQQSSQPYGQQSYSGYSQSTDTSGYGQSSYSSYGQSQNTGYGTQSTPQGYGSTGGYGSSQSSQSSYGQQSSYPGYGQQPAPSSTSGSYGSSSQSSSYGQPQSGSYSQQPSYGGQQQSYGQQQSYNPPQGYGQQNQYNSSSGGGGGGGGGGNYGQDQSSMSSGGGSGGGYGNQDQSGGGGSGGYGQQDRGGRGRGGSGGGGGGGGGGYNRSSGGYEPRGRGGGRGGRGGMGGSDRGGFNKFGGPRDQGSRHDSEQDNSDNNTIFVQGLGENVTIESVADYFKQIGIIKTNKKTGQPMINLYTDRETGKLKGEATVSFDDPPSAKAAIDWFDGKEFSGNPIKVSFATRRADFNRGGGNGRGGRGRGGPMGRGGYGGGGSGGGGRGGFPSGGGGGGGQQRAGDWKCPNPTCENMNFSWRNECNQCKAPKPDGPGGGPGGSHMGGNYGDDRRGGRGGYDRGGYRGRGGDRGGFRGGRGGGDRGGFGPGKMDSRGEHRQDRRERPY
Briefly: dynamic light scattering. The conditions noted are these: remark: other sources report otherwise.

The target of test [2] is T1, FUS-SNAP, P35637. The test can be described thus: nanoparticle tracking analysis. The conditions noted are these: remark: other sources report otherwise.

B1: FUS-SNAP, P35637 1-526 (natural protein)
chain: T1 chain
The molecule B1 showed a stoichiometry N (molecules per cluster) with FUS-SNAP, P35637 [1] of under 10. The percent of the protein molecules in mesoscale clusters (250 nM FUS-SNAP) in the test with FUS-SNAP, P35637 [2] was determined as 0.15%.
